Tests used:
[1] = molecular target: T1, human Vasoactive Intestinal Peptide Receptor 2 (VPAC2) (Homo sapiens, UniProt P41587); assay: cAMP cell-based bioassay, CHO cells expressing VPAC2; conditions: for in vitro activity for VPAC2 receptor compared with native VIP: cAMP, CHO cells expressing VPAC2, 30 minute incubation, FIG. 6, PB1047 DPP-IV treated
T1 construct: expressed in transfected cells; host or cells: Chinese Hamster Ovary (CHO) cells
T1 sequence (P41587 24-438): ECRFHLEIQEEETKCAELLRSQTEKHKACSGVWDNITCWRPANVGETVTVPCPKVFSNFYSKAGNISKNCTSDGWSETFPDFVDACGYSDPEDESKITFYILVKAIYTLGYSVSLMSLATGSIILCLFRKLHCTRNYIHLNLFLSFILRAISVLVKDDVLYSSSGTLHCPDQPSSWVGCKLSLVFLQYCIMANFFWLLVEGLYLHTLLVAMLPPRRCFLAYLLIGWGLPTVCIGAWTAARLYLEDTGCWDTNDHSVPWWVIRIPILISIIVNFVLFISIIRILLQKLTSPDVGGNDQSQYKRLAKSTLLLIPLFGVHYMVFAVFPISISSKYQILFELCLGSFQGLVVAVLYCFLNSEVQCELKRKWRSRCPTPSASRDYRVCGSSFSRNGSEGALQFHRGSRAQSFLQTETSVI
Protocol: (§1) Since the amount of cAMP accumulation in cells after receptor-mediated ligand binding and activation is directly proportional to the amount of intact peptide or fusion protein present, the assay can be used to determine bioactivity and relative potency.
In this example, the activity of VIP-ELP fusion proteins PB1046 and PB1047 was tested. […] Both constructs have ELP(1-120) at their C-terminus. […] After 30 minute incubations of various concentrations of the fusion proteins with the cell, the cells were lysed and the amount of cAMP produced was measured using a commercial kit. PB1047 was DPP-IV treated prior to the addition to the cells.
FIG. 11 illustrates the activity of PB1120 for the VPAC2 receptor. […] However, in contrast to the results seen with VPAC1, PB1046 was equipotent for VPAC2 as compared to the native peptide.

[2] = molecular target: T2, human Vasoactive Intestinal Peptide Receptor 1 (VPAC1) (Homo sapiens, UniProt P32241); assay: cAMP cell-based bioassay, CHO cells expressing VPAC1; conditions: for in vitro activity for VPAC1 receptor compared with native VIP: cAMP, CHO cells expressing VPAC1, 30 minute incubation, FIG. 7, PB1047 DPP-IV treated
T2 construct: expressed in transfected cells; host or cells: Chinese Hamster Ovary (CHO) cells
T2 sequence (P32241 31-457): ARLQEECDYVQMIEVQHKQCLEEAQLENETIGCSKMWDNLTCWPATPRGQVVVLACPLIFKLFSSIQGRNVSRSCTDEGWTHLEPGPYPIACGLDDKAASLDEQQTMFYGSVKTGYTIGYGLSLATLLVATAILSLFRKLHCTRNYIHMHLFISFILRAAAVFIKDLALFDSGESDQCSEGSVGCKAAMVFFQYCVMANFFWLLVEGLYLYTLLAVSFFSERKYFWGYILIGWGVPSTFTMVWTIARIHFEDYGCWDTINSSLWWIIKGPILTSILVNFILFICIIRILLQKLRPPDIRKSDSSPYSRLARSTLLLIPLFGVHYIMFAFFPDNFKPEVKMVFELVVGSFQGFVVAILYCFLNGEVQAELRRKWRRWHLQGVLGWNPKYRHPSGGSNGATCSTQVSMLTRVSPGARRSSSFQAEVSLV
Protocol: as §1
After 30 minute incubations of various concentrations of the fusion proteins with CHO cells, cells were lysed and the amount of cAMP produced was measured using a commercial kit. PB1047 was DPP-IV treated prior to the addition to the cells.
The activity of the PB1120 fusion peptide was tested in vitro.

[3] = test system: Spontaneously hypertensive rats; assay: Blood pressure effect of PB1047 in spontaneously hypertensive rats; assay type: in vivo, rat; conditions: 10 mg/kg subcutaneous, vs buffer control, FIG. 8
Protocol: The activity of the modified VIP-ELP fusion protein PB1047 was also tested in vivo. Specifically, effects of VIP-ELP fusion protein on blood pressure were tested. Spontaneously hypertensive rats were treated subcutaneous with PB1047 (10 mg/kg) or buffer control and their blood pressures were measured at several points after administration of the fusion protein. Five animals were used for each group and the graphs show the average and the standard deviation.

[4] = test system: conscious spontaneously hypertensive rats (SHR); assay: Telemetric blood pressure and heart rate in conscious SHR, single SQ dose, with and without atenolol (Example 7); assay type: in vivo, rat; conditions: for heart rate: +2 hr
Protocol: Here, the effects of PB 1046 (Vasomera™) when given as a single-dose SQ bolus to conscious spontaneously hypertensive rats (SHR) was tested.
SHR rats (351±4 g, n=8) were instrumented for telemetric blood pressure and ECG monitoring. Via a Latin-Square design, the effects of Vasomera (1, 3, and 9 mg/kg SQ) as well as of vehicle (VEH, SQ) were evaluated. Finally, Vasomera™ (9 mg/kg SQ) was assayed during concomitant β-adrenergic receptor blockade (BB, atenolol 20 mg/kg/day PO). Changes in mean arterial pressure (MAP) and heart rate (HR) were measured.

[5] = test system: conscious spontaneously hypertensive rats (SHR); assay: Telemetric blood pressure and heart rate in conscious SHR pretreated with anti-hypertensives (Example 8); assay type: in vivo, rat; conditions: 9 mg/kg SQ
Protocol: The hemodynamic effects of Vasomera™ when given as a single-dose SQ bolus to conscious spontaneously hypertensive rats (SHR) pretreated with three common anti-hypertensives were tested.
SHR rats (351±4 g, n=8) were instrumented for telemetric BP and ECG monitoring. First, both Vasomera™ (9 mg [177 nmol]/kg, SQ) and placebo (VEH) were assayed in untreated animals. Then, the effects of Vasomera™ were tested during concomitant oral β-adrenergic receptor blockade (+BB, atenolol 20 mg/kg/day), calcium-channel blockade (+CCB, amlodipine 5 mg/kg/day) and ACE-inhibition (+ACE, ramipril 1 mg/kg/day). Mean arterial pressure (MAP) and heart rate (HR) were measured/averaged over 24 hours both pre- and post-dosing.

[6] = under β-adrenergic receptor blockade (atenolol 20 mg/kg/day)
[7] = untreated rats, averaged over 24 hours

B1: PB1047: VIP-ELP fusion protein with tripeptide MAA at the N-terminus (Met removed to leave AA), ELP1-120 at C-terminus (SEQ ID NO: 15) (protein)
chain: MAAHSDAVFTDNYTRLRKQMAVKKYLNSILNVPGVGVPGVGVPGGGVPGAGVPGVGVPGVGVPGVGVPGGGVPGAGVPGGGVPGVGVPGVGVPGGGVPGAGVPGVGVPGVGVPGVGVPGGGVPGAGVPGGGVPGVGVPGVGVPGGGVPGAGVPGVGVPGVGVPGVGVPGGGVPGAGVPGGGVPGVGVPGVGVPGGGVPGAGVPGVGVPGVGVPGVGVPGGGVPGAGVPGGGVPGVGVPGVGVPGGGVPGAGVPGVGVPGVGVPGVGVPGGGVPGAGVPGGGVPGVGVPGVGVPGGGVPGAGVPGVGVPGVGVPGVGVPGGGVPGAGVPGGGVPGVGVPGVGVPGGGVPGAGVPGVGVPGVGVPGVGVPGGGVPGAGVPGGGVPGVGVPGVGVPGGGVPGAGVPGVGVPGVGVPGVGVPGGGVPGAGVPGGGVPGVGVPGVGVPGGGVPGAGVPGVGVPGVGVPGVGVPGGGVPGAGVPGGGVPGVGVPGVGVPGGGVPGAGVPGVGVPGVGVPGVGVPGGGVPGAGVPGGGVPGVGVPGVGVPGGGVPGAGVPGVGVPGVGVPGVGVPGGGVPGAGVPGGGVPGVGVPGVGVPGGGVPGAGVPGVGVPGVGVPGVGVPGGGVPGAGVPGGGVPGWP
modifications: MAA-VIP ELP1-120
[1]
  in vitro activity for VPAC2 receptor compared with native VIP: less active
[2]
  in vitro activity for VPAC1 receptor compared with native VIP: about the same as it was in the test for VPAC2 receptor
[3]
  diastolic blood pressure: significantly reduced
  systolic blood pressure: significantly reduced

B2: PB1046: VIP-ELP fusion protein: VIP with Met at the N-terminus and ELP1-120 fused at the C-terminus (SEQ ID NO: 14) (protein)
chain: MHSDAVFTDNYTRLRKQMAVKKYLNSILNVPGVGVPGVGVPGGGVPGAGVPGVGVPGVGVPGVGVPGGGVPGAGVPGGGVPGVGVPGVGVPGGGVPGAGVPGVGVPGVGVPGVGVPGGGVPGAGVPGGGVPGVGVPGVGVPGGGVPGAGVPGVGVPGVGVPGVGVPGGGVPGAGVPGGGVPGVGVPGVGVPGGGVPGAGVPGVGVPGVGVPGVGVPGGGVPGAGVPGGGVPGVGVPGVGVPGGGVPGAGVPGVGVPGVGVPGVGVPGGGVPGAGVPGGGVPGVGVPGVGVPGGGVPGAGVPGVGVPGVGVPGVGVPGGGVPGAGVPGGGVPGVGVPGVGVPGGGVPGAGVPGVGVPGVGVPGVGVPGGGVPGAGVPGGGVPGVGVPGVGVPGGGVPGAGVPGVGVPGVGVPGVGVPGGGVPGAGVPGGGVPGVGVPGVGVPGGGVPGAGVPGVGVPGVGVPGVGVPGGGVPGAGVPGGGVPGVGVPGVGVPGGGVPGAGVPGVGVPGVGVPGVGVPGGGVPGAGVPGGGVPGVGVPGVGVPGGGVPGAGVPGVGVPGVGVPGVGVPGGGVPGAGVPGGGVPGVGVPGVGVPGGGVPGAGVPGVGVPGVGVPGVGVPGGGVPGAGVPGGGVPGWP
modifications: M-VIP ELP1-120
[4]; 9 mg/kg (177 nmol/kg) SQ, +6 hr
  lowering of MAP vs VEH: 16±3%
[4]; 9 mg/kg SQ with β-adrenergic receptor blockade (atenolol 20 mg/kg/day PO)
  heart rate: 308±3 bpm
[4]; 9 mg/kg SQ with β-adrenergic receptor blockade (atenolol 20 mg/kg/day PO), +6 hr
  MAP: 131±3 mmHg
[4]; 9 mg/kg SQ
  heart rate: 370±15 bpm
[4]; 9 mg/kg SQ, +6 hr
  MAP: 154±5 mmHg
[4]; 1, 3, 9 mg/kg SQ, FIG. 14A
  duration of dose-dependent decreases in blood pressure post-dosing: up to 12 hours
[4]; SHR, 1-9 mg/kg SQ, with or without atenolol
  adverse clinical effects: No adverse clinical effects were noted
[1]; FIG. 11
  potency for VPAC2 as compared to the native peptide: equipotent
[1]; cAMP assays, FIG. 6 and 7
  selectivity for VPAC2 receptor over VPAC1 receptor: selectively activates VPAC2 receptor over VPAC1 receptor
[1]
  in vitro activity for VPAC2 receptor compared with native VIP: somewhat more active than native VIP protein
[5]; FIG. 15A
  duration of decreases in blood pressure post-dosing: up to 12 hours
[5]; rats pre-treated with amlodipine 5 mg/kg/day oral
  change in MAP: −13±2%
[5]; rats pre-treated with atenolol 20 mg/kg/day oral
  change in MAP: −14±1%
[5]; rats pre-treated with ramipril 1 mg/kg/day oral
  change in MAP: −9±2%
[5]; [6]
  change in heart rate: +6±1%
  heart rate post-dosing: 294±2 bpm
[5]; [7]
  MAP post-dosing: 171±5 mmHg
  change in heart rate: +8±1%
  heart rate post-dosing: 384±8 bpm
  lowering of MAP, post- vs pre-dosing: 9±1%
[5]; with amlodipine 5 mg/kg/day
  chronotropy under co-treatment: unaffected
[5]; with ramipril 1 mg/kg/day
  chronotropy under co-treatment: unaffected
[5]; SHR, with or without anti-hypertensives
  adverse clinical effects: no adverse clinical effects were noted
[2]; FIG. 10
  fold less active than the native VIP peptide on the VPAC1 receptor: approximately 11 fold
[2]
  in vitro activity for VPAC1 receptor compared with native VIP: much less active than native VIP protein

From patent US10940182B2, “Use of modified vasoactive intestinal peptides in the treatment of hypertension” (PhaseBio Pharmaceuticals, Inc., priority 2011, dated 2021)
